Test results: patent US20220064302A1 (GIGAGEN, published 2022)
Changes are numbered by the printed parent chain.

B1: A11 (antibody, V domains shown)
VH: QVQLVQSGAEVKKPGASVKVSCRASGYTFTNYGISWVRQAPGQGLEWMGWISVYSDNTHYPQKLQGRVTMTTDTSTSTAYMELRSLRSDDTAVYYCARDGSHGDYYYVMDLWGQGTTVTVSS
VL: DIQMTQSPSSLSASVGDSITITCRASQGISSWLAWYQQKPEKAPKSLIYAASSLQSGVPSRFSGSGSGTDFTLTISSLQPEDFATYYCQQFNSYPYTFGQGTKLEIK
notes: Tested as full-length mAb expressed in CHO cells; also called antibody A11; L11H11
B2: A16 (antibody, V domains shown)
VH: QVQLVESGGGVVQPGRSLTLSCAASGFTFSNYGMYWVRQAPGKGLEWVAVIWYDGSNKYYADSVKGRFTISRDNSKNTLYLQMNSLRAEDTAVYYCAGGGSYSGDYWGQGTLVTVSS
VL: DIQMTQSPSSLSASVGDRVTITCRTSQDIRNDLGWYQQKPGKAPKRLIYAVSSLQSGVPSRFSGSGSGTEFTFTISSLQPEDFATYYCLQYNTYPFTFGPGTTVDIK
notes: Tested as full-length mAb expressed in CHO cells; also called antibody 16; L16H16
B3: A17 (antibody, V domains shown)
VH: B2 VH with T19R, N31S, Y35H, K58Q, Y80F, Y95F, S101N, S103Y, Y106F
VL: B2 VL with T25A, D28G, V51A, F73L, N92I, T93S, F96W, P100Q, T103K, D105E
notes: Tested as full-length mAb expressed in CHO cells; also called antibody 17; L17H17
B4: A1 (antibody, V domains shown)
VH: B2 VH with T19R, Y35H, A61T, S101N, S103Y
VL: DIQMTQSPSSLSASVGDRVTITCRASQGIRNDLGWYQQKPGKAPKRLIYVASSLQSGVPSRFSGSGSGTEFTLTISSLQPEDFATYYCLQHNSYPLTFGGGTKVEIKR
notes: Tested as full-length mAb expressed in CHO cells; also called antibody A1; L1H1
B5: A3 (antibody, V domains shown)
VH: B2 VH with V11E, T19R, N31D, Y35H, S103W
VL: B4 VL with D32E, V50A, N92Y, S93I, L96W, G100Q
notes: Tested as full-length mAb expressed in CHO cells; also called antibody A3; L3H3
B6: A19 (antibody, V domains shown)
VH: QVQLVESGGGVVQPGRSLRLSCAASGFTFSNYGMYWVRQAPGKGLEWVAVIWYDGSNKYYADSVKGRFTISRDNSKNTLYLQMNSLRAEDTAVYYCAGGGDILTGDYWGQGTLVTVSS
VL: DIQMTQSPSSLSASVGDRVTITCRASQGIRNDLGWYQQKPGKAPKRLIYAASSLQSGVPSRFSGSGSGTEFTLTISSLQPEDFATYYCLQYKSYLYTFGQGTKLEIK
notes: Tested as full-length mAb expressed in CHO cells; also called antibody 19; L19H19
B7: A23 (antibody, V domains shown)
VH: QVQLVESGGGVVQPGRSLRLSCVASGFTFSNYGMHWVRQAPGKGLEWVAIIWYDGSIKYYADSVKGRFTISRDNSKNTLHLQMNSLRAEDTAVYYCARWGIYFDYWGQGTLVTVSS
VL: EIVMTQSPATLSVSPGERATLSCRASQSVSSNLAWYQQKPGQAPRLLIYGASTRATGIPARFSGSGSGTEFTLTISSLQSEDFAVYYCQQYHNWPLTFGGGTKVEIK
notes: Tested as full-length mAb expressed in CHO cells; also called antibody 23; L23H23
B8: A24 (antibody, V domains shown)
VH: QVQLVESGGGVVQPGRSLRLSCAASGFTFSDSGMHWVRQAPGKGLEWVAVIWYDGSKKYYVDSVKGRFTISRDNSKNTLYLQMNSLRAEDTAVYYCATEGDYWGQGTLVTVSS
VL: B7 VL with S14F, A34G, I48M, A55V, H92N, N93T, L96R, G100Q
notes: Tested as full-length mAb expressed in CHO cells; also called antibody 24; L24H24
B9: A26 (antibody, V domains shown)
VH: QVQLVESGGGVVQPGRSLRLSCAASGFTFSDYGMHWVRQAPGKGLEWVAVIWYDGSNKYYTDSVKGRFTISRDNSKNTLYLQMSSLRAEDAAVYYCAVNPFDYWGQGTLVTVSS
VL: DIQMTQSPSSLSASVGDRVTISCRASQGISNYLAWYQQKPGKVPKVLIYGASTLQSGVPSRFSGSGSGTDFTLTISSLQPEDVATYYCQKYNSAPYTFGQGTKLEIK
notes: Tested as full-length mAb expressed in CHO cells; also called antibody 26; L26H26
B10: A27 (antibody, V domains shown)
VH: QVQLVQSGAELVRPGTSVKLSCRASGYTFTTYWMHWVKQRPGQGLEWIGVIDPSDSYTYYNQKFKGKATLTVDTSSSTAYMQLSSLTSEDSAVYFCARNWDYWGQGTTLTVSS
VL: AIQLTQSPSSLSASVGDRVTITCRASQGISSALAWYQQKPGKAPKLLIYDASSLESGVPSRFSGSGSGTDFTLTISSLQPEDFATYYCQQFNDYALTFGGGTKVEIK
notes: Tested as full-length mAb expressed in CHO cells; also called antibody 27; L27H27
B11: A28 (antibody, V domains shown)
VH: QVQLVESGGGLVKPGGSLKLSCAASGFTFSDYGMHWVRQAPEKGLEWVAYISSGSFAIYYADTVRGRFTISRDSAKNTLFLQMTSLRSEDTAMYYCARRGPYPYYYSMDYWGQGTSVTVSS
VL: AIQMTQSPSSLSASVGDRVTITCRASQGISSALAWYQQKPGKAPKLLIYAASTLQSGVPSRFSGSGSGTDFTLTISSLQPEDFATYYCLQDYNYPWTFGQGTKVEIK
notes: Tested as full-length mAb expressed in CHO cells; also called antibody 28; L28H28
B12: A5 (antibody, V domains shown)
VH: QVQLVESGGGVVQPGRSLRLSCAASGFTFSNYGTHWVRQAPGKGLEWVAVIWYDGSNKYYADSVKGRFTISRDNSKNTLYLQMNSLRAEDTAVYYCARDRIYCSSTRCIGFGYYYYGMDVWGQGTTVTVSS
VL: AIQLTQSPSSLSASVGDRVTITCRASQGISSALAWYQQKPGKAPKLLIYDASSLESGVPSRFSGSGSGTDFTLTISSLQPEDFATYYCQQFNNYPWTFGQGTKVEIKR
notes: Tested as full-length mAb expressed in CHO cells; also called antibody A5; L5H5
B13: A7 (antibody, V domains shown)
VH: QVQLVQSGAEVKKPGASVKVSCKASGYTFTSYGINWVRQAPGQGLEWMGWISAYNGNRNYAQNLQGRVTMTSDTSTNTAYMELRSLRSYDTAVYYCARDHYDILTGYYKGGFDYWGQGTLVTVSS
VL: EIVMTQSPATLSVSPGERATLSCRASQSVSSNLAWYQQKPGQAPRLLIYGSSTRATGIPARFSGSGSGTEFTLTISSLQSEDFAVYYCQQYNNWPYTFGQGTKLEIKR
notes: Tested as full-length mAb expressed in CHO cells; also called antibody A7; L7H7
B14: A2 (antibody, V domains shown)
VH: QVQLVESGGGVVQPGRSLRLSCAASGFTFSSYGMHWVRQAPGKGLEWVALISYDGSNKYYADSVKGRFTISRDNSKNTLYLQMNSLRAEDTAVYYCARGGYFDPYGDYYYGMDVWGQGTTVTVSS
VL: B4 VL with G28A, Y36F, V50A, S60L, Y94F, L96W, G100Q
notes: Tested as full-length mAb expressed in CHO cells; also called antibody A2; L2H2

These binders were tested against PD-1 expressed on cells (human, UniProt Q15116 25-288) (assay: cell-based or functional assay).
Sequence of PD-1 expressed on cells (Q15116 25-288 limits assumed): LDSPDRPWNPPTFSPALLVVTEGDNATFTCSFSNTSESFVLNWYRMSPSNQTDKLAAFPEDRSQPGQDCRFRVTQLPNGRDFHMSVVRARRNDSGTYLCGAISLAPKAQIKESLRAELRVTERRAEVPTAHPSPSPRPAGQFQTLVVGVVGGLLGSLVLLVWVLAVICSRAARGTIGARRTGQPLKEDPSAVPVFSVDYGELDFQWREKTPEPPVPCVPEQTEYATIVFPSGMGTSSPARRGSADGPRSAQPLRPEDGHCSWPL
For B1, the “PD-1/PD-L1 blockage (IC50, µg/ml)” value was 1.31 µg/mL.
For B2, the “PD-1/PD-L1 blockage (IC50, µg/ml)” value was 0.556 µg/mL.
With B3 the “PD-1/PD-L1 blockage (IC50, µg/ml)” value was 0.533 µg/mL.
B4 was tested, and the “PD-1/PD-L1 blockage (IC50, µg/ml)” value was 2.39 µg/mL.
In the case of B5, the “PD-1/PD-L1 blockage (IC50, µg/ml)” value is reported as 1.34 µg/mL.
B6 was tested, and the “PD-1/PD-L1 blockage (IC50, µg/ml)” value was greater than 3.16 µg/mL.
With B7 the “PD-1/PD-L1 blockage (IC50, µg/ml)” value was 0.116 µg/mL.
In the case of B8, the “PD-1/PD-L1 blockage (IC50, µg/ml)” value is reported as 0.266 µg/mL.
In the case of B9, the “PD-1/PD-L1 blockage (IC50, µg/ml)” value is reported as 0.641 µg/mL.
In the case of B10, the “PD-1/PD-L1 blockage (IC50, µg/ml)” value is reported as 0.528 µg/mL.
In the case of B11, the “PD-1/PD-L1 blockage (IC50, µg/ml)” value is reported as 0.542 µg/mL.
With B12 the “PD-1/PD-L1 blockage (IC50, µg/ml)” value was 1.31 µg/mL.

The binders below were run against T1, human PD-1 (soluble PD-1 protein, R&D Systems) (human, UniProt Q15116 25-170, limits assumed) (assay: BLI, mAb on AHC biosensor, PD-1 as analyte).
T1 construct: the kinetics paragraphs say only 'PD-1' / 'antigen'; also called hPD-1; soluble PD-1 immunogen
T1 sequence (Q15116 25-170 limits assumed): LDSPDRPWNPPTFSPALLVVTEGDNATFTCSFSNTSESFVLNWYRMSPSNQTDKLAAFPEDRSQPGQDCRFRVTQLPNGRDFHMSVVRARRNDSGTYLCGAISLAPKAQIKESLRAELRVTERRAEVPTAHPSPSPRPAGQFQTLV
Method: The binding specificity and affinity of each full-length antibody towards PD-1 were determined using BLI and/or SPR. […] Anti-cyno PD-1 affinity was measured using BLI.
(§1) For BLI, antibodies were loaded onto an Anti-Human IgG Fc (AHC) biosensor using the Octet Red96 system (ForteBio). Loaded biosensors were dipped into antigen dilutions beginning at 300 nM, with 6 serial dilutions at 1:3. Kinetic analysis was performed using a 1:1 binding model and global fitting.
Work on B2 yielded a Kd of 86 nM.
B3 gave a Kd of 326 nM.
In the case of B6, the Kd is reported as 57.1 nM.
Work on B7 yielded a Kd of 83.8 nM.
With B8 the Kd was 8.5 nM.
B9 gave a Kd of 6 nM.
Binder B10 has a Kd of 13.8 nM.
With B11 the Kd was 23.8 nM.

Each binder was assayed against T1, human PD-1 (soluble PD-1 protein, R&D …) (assay: array SPR (Carterra), mAb captured, PD-1 as analyte).
Method: (§2) For SPR, a moderate density (»1,000 Response Units) of an antihuman IgG-Fc reagent (Southern Biotech 2047-01) was amine-coupled to a Xantec CMD-50M chip (50 nm carboxymethyldextran medium density of functional groups) activated with 133 mM EDC (Sigma) and 33.3 mM S-NHS (ThermoFisher) in 100 mM MES pH 5.5. Then, goat anti-Human IgG Fc (Southern Biotech 2047-01) was coupled for 10 minutes at […] in 10 mM Sodim Acetate pH 4.5 (Carterra Inc.). The surface was then deactivated with 1 M ethanolamine pH 8.5 (Carterra Inc.). Running buffer used for the lawn immobilization was HBS-EPC (10 mM HEPES, 150 mM NaCl, 3 mM EDTA, 0.05% Tween 20, pH 7.4; Teknova).
(§3) The sensor chip was then transferred to a continuous flow microspotter (CFM; Carterra Inc.) for array capturing. The mAb supernatants were diluted 50-fold ([…] final concentration) into HBS-EPC with 1 mg/mL BSA. The samples were each captured twice with 15-minute and 4-minute capture steps on the first and second prints, respectively, to create multiple densities, using a […] flow rate. The running buffer in the CFM was also HBS-EPC.
(§4) Next, the sensor chip was loaded onto an SPR reader (MX-96 system; Ibis Technologies) for the kinetic analysis. […] PD-1 injections were 5 minutes with a 15-minute dissociation at […] in a non-regenerative kinetic series. An injection of the goat anti-Human IgG Fc capture antibody at […] was injected at the end of the series to verify the capture level of each mAb. Binding data was double referenced by subtracting an interspot surface and a blank injection and analyzed for ka (on-rate), kd (off-rate), and KD (affinity) using the Kinetic Interaction Tool software (Carterra Inc.).
In the case of B4, the Kd is reported as 3.7 nM, the koff is reported as 2.6e-05 s⁻¹ and the kon is reported as 7000 M⁻¹ s⁻¹.
In the case of B5, the Kd is reported as 230 nM, the koff is reported as 0.0024 s⁻¹ and the kon is reported as 10000 M⁻¹ s⁻¹.
In the case of B12, the Kd is reported as 35 nM, the koff is reported as 0.00023 s⁻¹ and the kon is reported as 6400 M⁻¹ s⁻¹.
With B13 the Kd was 160 nM, the koff was 0.002 s⁻¹ and the kon was 12000 M⁻¹ s⁻¹.
In the case of B14, the Kd is reported as 130 nM, the koff is reported as 0.011 s⁻¹ and the kon is reported as 80000 M⁻¹ s⁻¹.

What follows are binders tested against T1, human PD-1 (soluble PD-1 protein, R&D …) (assay: BLI (ForteBio), mAb on AHC biosensor, PD-1 as analyte).
Method: as §1
In the case of B2, the Kd is reported as 86 nM, the koff is reported as 0.00655 s⁻¹ and the kon is reported as 76100 M⁻¹ s⁻¹.
Binder B3 has a Kd of 326 nM, a koff of 0.0079 s⁻¹ and a kon of 24200 M⁻¹ s⁻¹.
B6 was tested, and the Kd was 57.1 nM, the koff was 0.00107 s⁻¹ and the kon was 18700 M⁻¹ s⁻¹.
B7 showed a Kd of 83.8 nM, a koff of 0.00184 s⁻¹ and a kon of 22000 M⁻¹ s⁻¹.
Work on B8 yielded a Kd of 8.5 nM, a koff of 0.00185 s⁻¹ and a kon of 217000 M⁻¹ s⁻¹.
B9 was tested, and the Kd was 5.98 nM, the koff was 0.00104 s⁻¹ and the kon was 174000 M⁻¹ s⁻¹.
B10 gave a Kd of 13.8 nM, a koff of 0.000972 s⁻¹ and a kon of 70400 M⁻¹ s⁻¹.
B11 showed a Kd of 23.8 nM, a koff of 0.00418 s⁻¹ and a kon of 176000 M⁻¹ s⁻¹.

Each binder was assayed against T1, human PD-1 (soluble PD-1 protein, R&D …) (assay: array SPR, mAb captured on anti-human IgG Fc, PD-1 as analyte).
Method: as §2, §3, §4
B1: no binding (tested: PD-1 injected up to 500 nM).
B4 showed a Kd of 3.7 nM.
In the case of B5, the Kd is reported as 230 nM.
With B12 the Kd was 35 nM.
For B13, the Kd was 160 nM.
B14 showed a Kd of 130 nM.
